From patent publication US20220105157A1, “Compositions and Methods for Promoting Angiogenesis in the Eye” (The Regents of the University of California, priority 2019, published 2022) come the findings set out here.

The subject of assay [1] is bovine choroidal endothelial (BCE) cells. The experiment in a line: BCE endothelial cell proliferation assay (alamar blue). It counts as cell-based. Further details: key to BCE cell growth normalized to the vehicle control group: ns, not statistically significant. Conditions: for BCE cell growth normalized to the vehicle control group: day 6, n = 3. Here is the method: The bovine endothelial proliferation assays were performed essentially as previously described (63, 64). BCE (1×10^3 cells/well) or BRE (5×10^2 cells/well) cells were seeded in 96-well plates in the culture medium (DMEM-low glucose supplemented with 10% BCS, 2 mM glutamine and antibiotics) plus testing materials with a total volume of 200 μl per well. BAE cells were plated in 96-well plates at a density of 2×10^3 cells in the culture medium (DMEM-low glucose supplemented with 1% BCS and antibiotics) plus testing material with a total volume of 200 μl per well. HRME cells were seeded at a density of 1×10^3 cells/well in gelatin-coated 96-well plates in assay medium (DMEM-low glucose supplemented with 20% FBS and antibiotics) plus testing materials to make a total volume 200 μl per well. For assays involving antibodies or small-molecule inhibitors, inhibitors or vehicle controls were first added and then test materials were added one hour later. After 6 days (unless otherwise specified), cells were incubated with alamar blue for 4 h. Fluorescence was measured at 530 nm excitation wavelength and 590 nm emission wavelength. Each experiment was carried out in duplicate/triplicate and repeated at least three times.

For assay [2], the system named is retinal vasculature of mouse eyes. As to the kind of experiment: Intravitreal injection of recombinant proteins in mouse eyes, retinal vessel density. Conditions: mice, intravitreal. The format is in vivo. As for the experimental part: Male C57BL/6J mice (6-8 week and P5) were anesthetized with ketamine/Xylazine cocktail. The indicated amounts of recombinant LIF (Sigma, CAT #SRP9001) in 1 μl of PBS and PBS vehicle control were injected intravitreally with a 33-gauge Hamilton syringe. Seven (for adult mice) or 3 (for neonatal mice) days after injection, animals were euthanized, eyes were then enucleated and fixed in 4% paraformaldehyde (PFA) for 15 min. Choroid-sclera complexes and retinas were separated and anti-CD31 immunofluorescence (IF) or lectin labeling was performed to evidence the vasculature by whole mount staining of both retina and choroidal tissues or flat-mounts of retina. For CD31 IF, rat anti-mouse antibody (BD Biosciences, CAT #550274) was diluted 1:100 and incubated overnight at 4° C. After 4-hour incubation with the Alexa Fluor-488-conjugated anti-rat antibody (Life Technologies, CAT #A11006), whole mounts were imaged via the 488 nm channel using Keyence Microscope BZ-X710 (Keyence Corporation, Osaka, Japan) or A1R Confocal STORM super-resolution system (Nikon). For lectin staining, Dylight-488-labeled lectin (Vector Laboratories, CAT #DL-1174) was diluted at 1:200 and images were obtained using A1R Confocal STORM super-resolution system (Nikon). For Quantification of vascular density in choroids and retina was carried out by Image J. Student's t test was used for statistical analysis. […]
Optical coherence tomography angiography (OCTA) imaging of the retina of adult mice was performed 7 days after LIF injection, using a 1300 nm optical coherence tomography (OCT) system developed by Dr. R. K. Wang's group at University of Washington Seattle, in agreement with previously described methodology (66). […] To quantify the retinal vascular density, retinal and choroidal layers in 3D structure OCT scans were separated by the hyper-reflecting retinal pigment epithelium (RPE). […] The vessel density was then determined by calculating the percentages of vessel-covered area in total area of view using the ImageJ software.

The subject of assay [3] is choroid capillaries of NaIO3-treated mice. As to the kind of experiment: Sodium iodate (NaIO3) model, choroid capillary recovery. It counts as in vivo, mouse. As to conditions: NaIO3 20 mg/kg i.v.; intravitreal LIF 50 ng, CT-1 different doses, OSM 10 ng; OCT-A. Here is the method:
Eight-week-old C57BL/6J mice were anesthetized with ketamine/xylazine cocktail. Sterilized NaIO3 was administered as a single intravenous injection (20 mg/kg body weight) (28) (29). Control mice were injected with PBS. PBS, LIF (50 ng), CT-1 (different doses) or OSM (10 ng) was injected intravitreally in five-mice groups. Five, seven and nine days after injection, choroid capillaries were monitored by OCT-A system. 9 days after injection, mice were killed and eyes were harvested for H&E and immunofluorescent staining. Avascular area in choroid capillaries was analyzed using ImageJ.

B1: PRDX-1: recombinant human Peroxiredoxin 1 (protein, UniProt Q06830 2-199, looked up)
Peroxiredoxin-1: SSGNAKIGHPAPNFKATAVMPDGQFKDISLSDYKGKYVVFFFYPLDFTFVCPTEIIAFSDRAEEFKKLNCQVIGASVDSHFCHLAWVNTPKKQGGLGPMNIPLVSDPKRTIAQDYGVLKADEGISFRGLFIIDDKGILRQITVNDLPVGRSVDETLRLVQAFQFTDKHGEVCPAGWKPGSDTIKPDVQKSKEYFSKQK
B1: the “stimulation of BCE cell growth (mitogenic activity)” value in assay [1] is on record as “had no effect”. Moreover, the “BCE cell growth normalized to the vehicle control group” value in assay [1] (3 ng/ml), in assay [1] (10 ng/ml), in assay [1] (30 ng/ml), in assay [1] (100 ng/ml), in assay [1] (300 ng/ml) and in assay [1] (1000 ng/ml) was “ns” each time.

B2: OSM: oncostatin M, IL-6 family member (protein, UniProt P13725 26-221, looked up)
Oncostatin-M: AAIGSCSKEYRVLLGQLQKQTDLMQDTSRLLDPYIRIQGLDVPKLREHCRERPGAFPSEETLRGLGRRGFLQTLNATLGCVLHRLADLEQRLPKAQDLERSGLNIEDLEKLQMARPNILGLRNNIYCMAQLLDNSDTAEPTKAGRGASQPPTPTPASDAFQRKLEGCRFLHGYHRFMHSVGRVFSKWGESPNRSRR
Take B2: the “vascular density in the retina” value in assay [2] is on record as “vascular density decreased”. In addition, in assay [3], the “avascular areas in choroid compared to PBS group” value was “larger than in the PBS group”.

B3: CT-1: cardiotrophin-1, IL-6 family member (protein, UniProt Q16619 1-201, looked up)
Cardiotrophin-1: MSRREGSLEDPQTDSSVSLLPHLEAKIRQTHSLAHLLTKYAEQLLQEYVQLQGDPFGLPSFSPPRLPVAGLSAPAPSHAGLPVHERLRLDAAALAALPPLLDAVCRRQAELNPRAPRLLRRLEDAARQARALGAAVEALLAALGAANRGPRAEPPAATASAASATGVFPAKVLGLRVCGLYREWLSRTEGDLGQLLPGGSA
In the case of B3, the “increase in retinal density” value in assay [2] (20 ng) was “approximately 30%”; in assay [2] (100 ng), roughly 50%. In assay [3], the “avascular areas in choroid compared to PBS group” value is given as “reduced avascular areas”.
